B1: TPP-29845 (antibody, V domains shown)
VH: EVQLVESGGGLVQPGGSLRLSCAASGFTFSNFYMNWVRQAPGKGLEWVSYISSSSSTIYYADSVKGRFTISRDDSKNSLYLQMNSLKTEDTAVYYCAREGDYFDYWGQGTLVTVSS
VL: EIVLTQSPGTLSLSPGERATLSCRASQSVSSFGATFMHWYQQKPGQPPKLLIYLASNRASGVPDRFSGSGSGTDFTLKISRVEAEDVGVYYCQQNNEDPYTFGQGTKLEIKR
B2: TPP-29855 (antibody, V domains shown)
VH: EVQLVESGGGLVQPGGSLRLSCAASGFTFSNYYMNWVRQAPGKGLEWVSYISSRSSTIYYADSVKGRFTISRDDSKNSLYLQMNSLKTEDTAVYYCAREGDYFDYWGQGTLVTVSS
VL: EIVLTQSPGTLSLSPGERATLSCRASQSVSSFGATFMHWYQQKPGQPPKLLIYLASNRASGVPDRFSGSGSGTDFTLKISRVEAEDVGVYYCQQNNEDPYTFGQGTKLEIKR
B3: TPP-29849 (antibody, V domains shown)
VH: EVQLVESGGGLVQPGGSLRLSCAASGFTFSNYYMNWVRQAPGKGLEWVSYISSSSSTIYYADSVKGRFTISRDDSKNSLYLQMNSLKTEDTAVYYCAREGDYFDYWGQGTLVTVSS
VL: EIVLTQSPGTLSLSPGERATLSCRASQSVSSFGATFMHWYQQKPGQPPKLLIYLAWNRASGVPDRFSGSGSGTDFTLKISRVEAEDVGVYYCQQNNEDPYTFGQGTKLEIKR
B4: TPP-29843 (antibody, V domains shown)
VH: EVQLVESGGGLVQPGGSLRLSCAASGFTFSNYYMNWVRQAPGKGLEWVSYISTSSSTIYYADSVKGRFTISRDDSKNSLYLQMNSLKTEDTAVYYCAREGDYFDYWGQGTLVTVSS
VL: EIVLTQSPGTLSLSPGERATLSCRASQSVSSFGATFMHWYQQKPGQPPKLLIYLASNRASGVPDRFSGSGSGTDFTLKISRVEAEDVGVYYCQQNNEDPYTFGQGTKLEIKR
B5: TPP-26939 (antibody, V domains shown)
VH: EVQLVESGGGLVQPGGSLRLSCAASGFTFSNYYINWVRQAPGKGLEWVGDIRLKSNNYEKHYAESVKGRFTISRDDSKNSLYLQMNSLKTEDTAVYYCAREGDYFDYWGQGTLVTVSS
VL: DIVLTQSPASLAVSPGQRATITCKASQSVSSFGATFMHWYQQKPGQPPKLLIYLASNRASGVPDRFSGSGSGTDFTLKISRVEAEDVGVYYCQQNNEDPYTFGQGTKLEIKR
B6: TPP-29856 (antibody, V domains shown)
VH: EVQLVESGGGLVQPGGSLRLSCAASGFTFSNYYMNWVRQAPGKGLEWVSYISSSSSTIYYADSVKGRFTISRDDSKNSLYLQMNSLKTEDTAVYYCAREGDYFDYWGQGTLVTVSS
VL: EIVLTQSPGTLSLSPGERATLSCRASQSVSSFGATFMHWYQQKPGQPPKLLIYLASHRASGVPDRFSGSGSGTDFTLKISRVEAEDVGVYYCQQNNEDPYTFGQGTKLEIKR
B7: TPP-29852 (antibody, V domains shown)
VH: EVQLVESGGGLVQPGGSLRLSCAASGFTFSFYYMNWVRQAPGKGLEWVSYISSSSSTIYYADSVKGRFTISRDDSKNSLYLQMNSLKTEDTAVYYCAREGDYFDYWGQGTLVTVSS
VL: EIVLTQSPGTLSLSPGERATLSCRASQSVSSFGATFMHWYQQKPGQPPKLLIYLASNRASGVPDRFSGSGSGTDFTLKISRVEAEDVGVYYCQQNNEDPYTFGQGTKLEIKR
B8: TPP-29847 (antibody, V domains shown)
VH: EVQLVESGGGLVQPGGSLRLSCAASGFTFSNYYMNWVRQAPGKGLEWVSYISSSSSTIYYADSVKGRFTISRDDSKNSLYLQMNSLKTEDTAVYYCAREGDYFDYWGQGTLVTVSS
VL: EIVLTQSPGTLSLSPGERATLSCRASQSVSSFGATFMHWYQQKPGQPPKLLIYLASNRASGVPDRFSGSGSGTDFTLKISRVEAEDVGVYYCQQNNEDPFTFGQGTKLEIKR
B9: TPP-29857 (antibody, V domains shown)
VH: EVQLVESGGGLVQPGGSLRLSCAASGFTFSNYYMNWVRQAPGKGLEWVSYISSSSSTIYYADSVKGRFTISRDDSKNSLYLQMNSLKTEDTAVYYCAREGDYFDYWGQGTLVTVSS
VL: EIVLTQSPGTLSLSPGERATLSCRASQSVSSFGATFMHWYQQKPGQPPKLLIYLASNRASGVPDRFSGSGSGTDFTLKISRVEAEDVGVYYCQQNNEDPWTFGQGTKLEIKR
B10: TPP-29846 (antibody, V domains shown)
VH: EVQLVESGGGLVQPGGSLRLSCAASGFTFSPYYMNWVRQAPGKGLEWVSYISSSSSTIYYADSVKGRFTISRDDSKNSLYLQMNSLKTEDTAVYYCAREGDYFDYWGQGTLVTVSS
VL: EIVLTQSPGTLSLSPGERATLSCRASQSVSSFGATFMHWYQQKPGQPPKLLIYLASNRASGVPDRFSGSGSGTDFTLKISRVEAEDVGVYYCQQNNEDPYTFGQGTKLEIKR
B11: TPP-29854 (antibody, V domains shown)
VH: EVQLVESGGGLVQPGGSLRLSCAASGFTFSNYYMNWVRQAPGKGLEWVSYISSSSSTIYYADSVKGRFTISRDDSKNSLYLQMNSLKTEDTAVYYCAREGDYFDYWGQGTLVTVSS
VL: EIVLTQSPGTLSLSPGERATLSCRASQSVSSFGATFMHWYQQKPGQPPKLLIYLKSNRASGVPDRFSGSGSGTDFTLKISRVEAEDVGVYYCQQNNEDPYTFGQGTKLEIKR
B12: TPP-29848 (antibody, V domains shown)
VH: EVQLVESGGGLVQPGGSLRLSCAASGFTFSNYYMNWVRQAPGKGLEWVSYISSSSSTIYYADSVKGRFTISRDDSKNSLYLQMNSLKTEDTAVYYCAREGDYFDYWGQGTLVTVSS
VL: EIVLTQSPGTLSLSPGERATLSCRASESVSSFGATFMHWYQQKPGQPPKLLIYLASNRASGVPDRFSGSGSGTDFTLKISRVEAEDVGVYYCQQNNEDPYTFGQGTKLEIKR
B13: TPP-29861 (antibody, V domains shown)
VH: EVQLVESGGGLVQPGGSLRLSCAASGFTFSNYYMNWVRQAPGKGLEWVSYISSSSRTIYYADSVKGRFTISRDDSKNSLYLQMNSLKTEDTAVYYCAREGDYFDYWGQGTLVTVSS
VL: EIVLTQSPGTLSLSPGERATLSCRASQSVSSFGATFMHWYQQKPGQPPKLLIYLASNRASGVPDRFSGSGSGTDFTLKISRVEAEDVGVYYCQQNNEDPYTFGQGTKLEIKR
B14: TPP-29860 (antibody, V domains shown)
VH: EVQLVESGGGLVQPGGSLRLSCAASGFTFSNYYMNWVRQAPGKGLEWVSYISSSSSTIYYADSVKGRFTISRDDSKNSLYLQMNSLKTEDTAVYYCAREGDYFDYWGQGTLVTVSS
VL: EIVLTQSPGTLSLSPGERATLSCRASQSVSSFGATFMHWYQQKPGQPPKLLIYLASNRASGVPDRFSGSGSGTDFTLKISRVEAEDVGVYYCTQNNEDPYTFGQGTKLEIKR
B15: TPP-29844 (antibody, V domains shown)
VH: EVQLVESGGGLVQPGGSLRLSCAASGFTFSIYYMNWVRQAPGKGLEWVSYISSSSSTIYYADSVKGRFTISRDDSKNSLYLQMNSLKTEDTAVYYCAREGDYFDYWGQGTLVTVSS
VL: EIVLTQSPGTLSLSPGERATLSCRASQSVSSFGATFMHWYQQKPGQPPKLLIYLASNRASGVPDRFSGSGSGTDFTLKISRVEAEDVGVYYCQQNNEDPYTFGQGTKLEIKR

This assay addresses T1, plasma-derived human activated protein C (APC) (UniProt P04070 43-461).
T1 chain: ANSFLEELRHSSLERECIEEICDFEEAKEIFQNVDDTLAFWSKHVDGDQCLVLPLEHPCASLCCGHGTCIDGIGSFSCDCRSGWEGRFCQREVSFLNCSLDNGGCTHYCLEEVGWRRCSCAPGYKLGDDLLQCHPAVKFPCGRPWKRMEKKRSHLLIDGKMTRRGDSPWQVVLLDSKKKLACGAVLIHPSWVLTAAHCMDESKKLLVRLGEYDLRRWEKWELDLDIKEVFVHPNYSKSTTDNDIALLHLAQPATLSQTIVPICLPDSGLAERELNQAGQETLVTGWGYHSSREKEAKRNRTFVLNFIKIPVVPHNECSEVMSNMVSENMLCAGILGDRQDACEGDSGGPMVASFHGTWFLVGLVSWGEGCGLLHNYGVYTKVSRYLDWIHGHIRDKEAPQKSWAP
The assay is described as follows: SPR; head prints nM; kd/ka gives M.
The molecule B1 yielded a Kd of 10.7 nM. This lies in the double-digit nanomolar range.
As for B2, the Kd was 26.1 nM.
The figure for B3 is 10.2 nM.
B4: the Kd is 22.3 nM.
The figure for B5 is 52.1 nM; for B6 it is 21.3 nM; for B7 it is 1.18 nM.
The same measure for B8: 8.33 nM; for B9: 13.3 nM; for B10: 6.37 nM.
For B11, the affinity, expressed as Kd, was 25.2 nM.
The figure for B12 is 16.2 nM; for B13 it is 11.3 nM.
The figure for B14 is 23.9 nM; for B15 it is 10.1 nM.

As usually defined, the Kd is the equilibrium constant for the complex coming apart.

For the origin of these results see patent US20250188189A1 (published 2025).
